Reference: patent US20240207383

Target: ComPC1-CRM197 fusion protein

B1: PglS oligosaccharyltransferase (protein)
chain: MNSIFKKIKNYTIVSGVFFLGSAFIIPNTSNLSSTLYKELIAVLGLLILLTVKSFDYKKILIPKNFYWFLFVIFIIFIQLIVGEIYFFQDFFFSISFLVILFLSFLLGFNERLNGDDLIVKKIAWIFIIVVQISFLIAINQKIEIVQNFFLFSSSYNGRSTANLGQPNQFSTLILITLFLLCYLREKNSLNNMVFNILSFCLIFANVMTQSRSAWISVILISLLYLLKFQKKIELRRVIFFNIVFWTLVYCVPLLFNLIFFQKNSYSTFDRLTMGSSRFEIWPQLLKAVFHKPFIGYGWGQTGVAQLETINKSSTKGEWFTYSHNLFLDLMLWNGFFIGLIISILILCFLIELYSSIKNKSDLFLFFCVVAFFVHCLLEYPFAYTYFLIPVGFLCGYISTQNIKNSISYFNLSKRKLTLFLGCCWLGYVAFWVEVLDISKKNEIYARQFLFSNHVKFYNIENYILDGFSKQLDFQYLDYCELKDKYQLLDFKKVAYRYPNASIVYKYYSISAEMKMDQKSANQIIRAYSVIKNQKIIKPKLKFCSIEY
glycosylation with CPS8, Western blot of periplasmic extracts (anti-His): the ComPC1-CRM197 was also glycosylated by PglS
